Laboratory results taken from PMC3406032, “Tristetraprolin Inhibits Poly(A)-Tail Synthesis in Nuclear mRNA that Contains AU-Rich Elements by Interacting with Poly(A)-Binding Protein Nuclear 1” (PLoS ONE, 2012).
Residue numbers refer to the chain shown, from its start. Numbers in names are those of the source. Blank lines part the entries; values can stand above or below the molecule they belong to.

Assays:
[1] = target: T1, MBP-PABPN1-HA-(His)6 (mouse); test: pull-down; MBP-PABPN1 immobilised on amylose resin and incubated with (His)6-PAP-myc and GST-TTP together; blots with anti-GST and anti-myc quantitated; oligo(A)12 added to some samples
T1 sequence (Q8CCS6 whole entry, looked up): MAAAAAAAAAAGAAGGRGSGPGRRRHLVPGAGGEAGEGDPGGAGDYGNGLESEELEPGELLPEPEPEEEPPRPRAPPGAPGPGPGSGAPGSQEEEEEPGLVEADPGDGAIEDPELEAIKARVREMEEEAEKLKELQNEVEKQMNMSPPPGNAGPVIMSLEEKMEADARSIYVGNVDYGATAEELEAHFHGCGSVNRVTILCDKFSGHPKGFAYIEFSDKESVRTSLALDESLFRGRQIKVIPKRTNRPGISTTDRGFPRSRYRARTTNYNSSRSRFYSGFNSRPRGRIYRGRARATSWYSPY

hexahistidine-PAP-myc = target: T2, hexahistidine-PAP-myc (UniProt Q61183-1 1-739); test: co-IP; 0.5 µg bacterially expressed GST-TTP construct and 0.5 µg (His)6-PAP-myc with anti-myc agarose in 10 mM Tris pH 7.0, 0.15 M NaCl, 1 mM MgCl2, 0.7 mM ZnCl2, 0.1% NP-40, 4°C overnight; blots with anti-myc and anti-GST; conditions: both partners purified
T2 construct: poly(A) polymerase (PAP), NM_011112, in a pQE expression vector; also called (His)6-PAP-myc; poly(A) polymerase; source: bacterially expressed (E. coli STBL2 or Rosetta(DE3)pLacI), purified; not shown: His6, N-terminal, kept; myc, C-terminal, kept
T2 sequence (Q61183 whole entry): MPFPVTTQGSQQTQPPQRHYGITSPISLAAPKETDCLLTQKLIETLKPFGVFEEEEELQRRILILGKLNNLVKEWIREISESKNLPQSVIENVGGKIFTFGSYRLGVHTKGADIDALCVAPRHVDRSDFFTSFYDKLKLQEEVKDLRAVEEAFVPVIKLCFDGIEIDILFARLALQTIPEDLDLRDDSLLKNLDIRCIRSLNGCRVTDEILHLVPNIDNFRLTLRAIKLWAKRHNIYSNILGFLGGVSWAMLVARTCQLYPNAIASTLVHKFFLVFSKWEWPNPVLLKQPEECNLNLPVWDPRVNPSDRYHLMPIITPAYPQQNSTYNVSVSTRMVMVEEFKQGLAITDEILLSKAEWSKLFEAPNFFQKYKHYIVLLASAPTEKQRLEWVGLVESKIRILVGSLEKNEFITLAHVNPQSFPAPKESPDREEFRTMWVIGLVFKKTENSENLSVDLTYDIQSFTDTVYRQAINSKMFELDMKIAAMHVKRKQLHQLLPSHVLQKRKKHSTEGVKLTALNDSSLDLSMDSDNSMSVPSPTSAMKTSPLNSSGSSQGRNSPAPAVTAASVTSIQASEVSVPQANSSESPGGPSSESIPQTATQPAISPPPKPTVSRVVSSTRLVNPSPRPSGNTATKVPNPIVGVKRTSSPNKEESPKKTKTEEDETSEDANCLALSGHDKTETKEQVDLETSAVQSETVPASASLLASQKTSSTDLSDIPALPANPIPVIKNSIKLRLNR

(His)6-PABPN1 (mouse) = (His)6-PABPN1 (mouse) (UniProt O35445)

B1: GST-TTP@95-158 (domain or fragment, mouse, UniProt P22893 95-158, looked up)
chain: RYKTELCRTYSESGRCRYGAKCQFAHGLGELRQANRHPKYKTELCHKFYLQGRCPYGSRCHFIH
notes: also called TZF construct; TZF domain; source: E. coli STBL2 or Rosetta(DE3)pLacI, purified (glutathione-agarose); not shown: GST, N-terminal, kept
binding result (hexahistidine-PAP-myc): binds

B2: GST-TTP@95-158(F118N) (domain or fragment, mouse, UniProt P22893 95-158, looked up)
chain: B1 chain with F24N
notes: source: E. coli STBL2 or Rosetta(DE3)pLacI, purified (glutathione-agarose); not shown: GST, N-terminal, kept
binding result (hexahistidine-PAP-myc): binds

B3: GST-TTP@2-186 (domain or fragment, mouse, UniProt P22893 2-186, looked up)
chain: DLSAIYESLQSMSHDLSSDHGGTESLGGLWNINSDSIPSGVTSRLTGRSTSLVEGRSCGWVPPPPGFAPLAPRPGPELSPSPTSPTATPTTSSRYKTELCRTYSESGRCRYGAKCQFAHGLGELRQANRHPKYKTELCHKFYLQGRCPYGSRCHFIHNPTEDLALPGQPHVLRQSISFSGLPSGR
notes: as for B2
binding result (hexahistidine-PAP-myc): binds

B4: N-terminally glutathione S-transferase-tagged wild-type TTP (natural protein, mouse, UniProt P22893 2-319, looked up)
chain: DLSAIYESLQSMSHDLSSDHGGTESLGGLWNINSDSIPSGVTSRLTGRSTSLVEGRSCGWVPPPPGFAPLAPRPGPELSPSPTSPTATPTTSSRYKTELCRTYSESGRCRYGAKCQFAHGLGELRQANRHPKYKTELCHKFYLQGRCPYGSRCHFIHNPTEDLALPGQPHVLRQSISFSGLPSGRRSSPPPPGFSGPSLSSCSFSPSSSPPPPGDLPLSPSAFSAAPGTPVTRRDPNQACCPSCRRSTTPSTIWGPLGGLARSPSAHSLGSDPDDYASSGSSLGGSDSPVFEAGVFGPPQTPAPPRRLPIFNRISVSE
notes: also called WT GST-TTP; GST-TTP; source: E. coli STBL2 or Rosetta(DE3)pLacI, purified (glutathione-agarose); not shown: GST, N-terminal, kept
amount of TTP pulled down with (His)6-PAP-myc present, against TTP alone [1]: 80%
in vitro polyadenylation of TNFα-ARE A20 RNA by (His)6-PAP-myc with (His)6-PABPN1: reduction of the processive addition of adenosines by GST-TTP at 2 and 5 min ((His)6-PABPN1 (mouse)): 45%
binding result (hexahistidine-PAP-myc): binds

Next, values leading:

fold change of PAP pulled down with GST-TTP present, against PAP alone [1]: 4 fold
Molecule: hexahistidine-PAP-myc (from UniProt Q61183-1 1-739) (enzyme)

binding result (hexahistidine-PAP-myc): binds
B5: GST-TTP@2-319(F118N) (natural protein, mouse, UniProt P22893 2-319, looked up)
chain: B4 chain with F117N
notes: as for B2

binding result (hexahistidine-PAP-myc): binds
B6: GST-TTPΔ95–158 (natural protein, mouse, UniProt P22893 2-319, looked up)
chain: DLSAIYESLQSMSHDLSSDHGGTESLGGLWNINSDSIPSGVTSRLTGRSTSLVEGRSCGWVPPPPGFAPLAPRPGPELSPSPTSPTATPTTSSNPTEDLALPGQPHVLRQSISFSGLPSGRRSSPPPPGFSGPSLSSCSFSPSSSPPPPGDLPLSPSAFSAAPGTPVTRRDPNQACCPSCRRSTTPSTIWGPLGGLARSPSAHSLGSDPDDYASSGSSLGGSDSPVFEAGVFGPPQTPAPPRRLPIFNRISVSE
notes: also called TZF domain-deleted TTP mutant; source: E. coli STBL2 or Rosetta(DE3)pLacI, purified (glutathione-agarose); not shown: GST, N-terminal, kept
